Measurements published in article PMC12880088.

Target: T1, rYeiE (YeiE-Strep-tag II) (Salmonella enterica serotype Typhimurium ATCC14028s) (UniProt Q8ZNK8)
T1 sequence: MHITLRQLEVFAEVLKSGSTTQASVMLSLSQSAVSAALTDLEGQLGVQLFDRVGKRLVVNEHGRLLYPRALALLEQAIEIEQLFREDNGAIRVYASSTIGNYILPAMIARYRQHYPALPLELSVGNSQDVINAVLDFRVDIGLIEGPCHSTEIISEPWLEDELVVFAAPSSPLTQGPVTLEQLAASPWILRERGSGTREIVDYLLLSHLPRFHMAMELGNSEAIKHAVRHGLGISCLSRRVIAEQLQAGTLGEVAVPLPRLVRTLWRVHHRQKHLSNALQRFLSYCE
Assay: EMSA
Conditions: 150 mM KCl, 0.1 mM DTT, 0.1 mM EDTA, 10 mM Tris pH 7.4, 20 min at room temperature; 6% native PAGE, SYBR Green

“GTTGAACCGCTTTTCAGTACTTCAGCAAACACTTCAAGTTGTCGTAGCGTAATATGCATAGTCGTATCCCACCGATAGCGTTTCACTTACCACTTATAAAGATTAATTATAAATATATAATCAATTTTATTTTTAAACCAGATCACCGTAACCTTATTGTCCATATACAGGAGAAGGTTATGACAGAACTCACCTTGCAGAATCATCGTCGTACAATGTGGCATTTTATACCGGGGCTCGCTCTGAGCGCCGTCATTACAGGAGTCGCCCTGTGGGGCGGCGCTATCCCTGCCGTTGCA (double strand) [PyeiE]” was tested, and the binding was “binds”.
